Assay results: PMC8534003 (2021)
Where no end group is shown, it is not given here. The star is where a group is joined. Biotin = O=C1N[C@H]2[C@H](CS[C@H]2CCCCC(=O)*)N1

Target: human recombinant FGF-2 (human, UniProt P09038 143-288)
Sequence (P09038 143-288): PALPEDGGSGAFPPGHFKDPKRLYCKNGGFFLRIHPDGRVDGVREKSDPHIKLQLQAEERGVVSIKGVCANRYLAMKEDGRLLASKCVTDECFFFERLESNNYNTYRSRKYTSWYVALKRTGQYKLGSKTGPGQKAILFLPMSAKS

B1: biotinylated CXCL9(74-103) (peptide)
peptide: Biotin-KKKQKNGKKHQKKKVLKVRKSQRSRQKKTT
koff: 0.00207 s⁻¹
